Read-outs that look alike come from different tables or passages of the source.
B1: fully Humaneered Fab Clone #44 (Fab, part only; not given: kappa light chain, V domains shown, part only)
VH: QITLKESGPVLVKPTETLTLTCTVSGFSLSTSGVGVGWIRQPPGKALEWLADIWWDDNKYYNPSLKSRLTISKDTSKNQVVLTMTNMDPVDTATYYCARITTEGGFAYWGQGTLVTVSS
B2: Humaneered antibody MAB2 (antibody, human IgG1, V domains shown)
VH: QITLKESGPVLVKPTETLTLTCTVSGFSLSTSGVGVGWIRQPPGKALEWLADIWWDDNKYYNPSLKSRLTISKDTSKNQVVLTMTNMDPVDTATYYCARITTEGGFAYWGQGTLVTVSS
VL: DIQMTQSPSSLSASVGDRVTITCRAGQRISHNLHWYQQKPDESPRLLINFASRLISGVPSRFSGSGSGTDFTLTISSLQPEDFATYYCQQSNYWPLTFGQGTKLEIK
B3: Humaneered antibody MAB3 (antibody, human IgG1, V domains shown)
VH: QVTLKESGPTLVKPTQTLTLTCTVSGFSLSTSGVGVGWIRQSPGKALEWLADIWWDDNKYYNPSLKSRLTISKDTSKNQVVLTMTNMDPVDTATYYCARITTEGGFAYWGQGTLVTVSS
VL: DIQMTQSPSSLSASVGDRVTITCRAGQRISHNLHWYQQKPDESPRLLINFASRLISGVPSRFSGSGSGTDFTLTISSLQPEDFATYYCQQSNYWPLTFGQGTKLEIK
B4: mouse monoclonal antibody MAB1 (antibody, V domains shown)
VH: QVTLKESGPGILQPSQTLSLTCSFSGFSLSTSGMGVGWIRQPSGEGLEWLADIWWDDNKYYNPSLKSRLTVSKDTSSNQVFLKITSVDTADTATYYCALITTEGGFAYWGQGTLVTVSA
VL: DIVLTQSPATLSVTPGDSVSLSCRASQSINNNLHWYQQKSHESPRLLIKFASRSISGIPSKFSGSGSGTDFTLSINSVETEDFGMYFCQQSNYWPLTFGAGTNLELI
notes: also called parent mouse monoclonal antibody; murine anti-human Pcsk9 IgG1-kappa monoclonal antibody

Assays:
[1] = biological target: biotinylated PCSK9-Avi-His6 (human) (UniProt Q8NBP7); test: ForteBio Octet bio-layer interferometry, biotinylated PCSK9-Avi-His6 on streptavidin sensors, Fab in solution
[2] = biological target: T1, recombinant human PCSK9 (aa 31-692) with C-terminal His6 tag (human, UniProt Q8NBP7 31-692); test: cell-based or functional assay
[3] = biological target: T1, recombinant human PCSK9 (aa 31-692) …; test: TR-FRET competition, hPcsk9-AF (8 nM) and hLDL-R-Eu (1 nM)
Text: Data are representative of at least two independent experiments.

[4] = biological target: T1, recombinant human PCSK9 (aa 31-692) …; test: solution equilibrium titration (SET), MSD electrochemiluminescence read-out
Method: The binding kinetics of the final selected candidates were analyzed using a Solution Equilibrium Titration (“SET”) assay. Briefly, serial dilutions of human, cyno, mouse, or rat Pcsk9 were prepared, and anti-Pcsk9 Ab was added to each antigen concentration to reach a constant antibody concentration of 100 pM. 100 μL/well of each dilution mix was distributed in duplicate to a 96-well polypropylene microtiter plate (Greiner). The plate was sealed and incubated over night at room temperature. A 96-well Standard Bind microtiter plate (Meso Scale Discovery) was coated with 25 μL of 1 μg/mL Pcsk9 diluted in PBS. This plate was sealed and incubated overnight at 4° C. After the incubation the antigen-coated Standard Bind micro titer plate was washed three times with 200 μL per well PBS/0.05% (w/v) Tween 20. Subsequently, the plate was blocked with 150 μL/well PBS/5% (w/v) BSA and incubated for one hour at room temperature with shaking. The washing steps were repeated and 25 μL/well of the antibody-antigen preparation from the polypropylene microtiter plate was transferred into the antigen-coated Standard Bind plate. The Standard Bind plate was incubated for 60 min at room temperature with shaking. […] Electrochemiluminescence signals were generated and detected by a Sector Imager 6000 (Meso Scale Discovery).

hFgfr4 hFc [5] = biological target: T2, hFgfr4 hFc (human, UniProt P22455); test: specificity ELISA, antigen coated at 88 ng per well, absorbance 650 nm
T2 sequence (fusion chain, looked up): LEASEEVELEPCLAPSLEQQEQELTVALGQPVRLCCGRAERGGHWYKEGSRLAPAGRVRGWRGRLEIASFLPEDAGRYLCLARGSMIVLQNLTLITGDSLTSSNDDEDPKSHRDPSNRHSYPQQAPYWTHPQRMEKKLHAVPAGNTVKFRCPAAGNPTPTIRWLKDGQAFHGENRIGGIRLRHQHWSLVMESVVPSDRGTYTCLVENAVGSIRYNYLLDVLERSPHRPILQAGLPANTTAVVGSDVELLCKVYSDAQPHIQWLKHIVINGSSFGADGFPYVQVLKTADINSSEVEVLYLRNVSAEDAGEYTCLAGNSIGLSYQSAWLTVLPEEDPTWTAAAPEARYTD
Method: (§1) For specificity ELISAs on purified human and mouse IgGs, a 384-well plate was coated with a panel of purified human or mouse antigens at 88 ng per well and incubated overnight at 4° C. The plate was blocked and washed as described above, then 22 μL of purified mouse or human anti-PCSK9 antibody diluted to 2 μg/mL in PBS was added to each well. The plate was incubated for 1 hr at 37° C. then washed with PBST. […] The plate was incubated for 1 hr at room temperature, then washed and developed as described above.

Rat (Pcsk9 homolog) = Rat (Pcsk9 homolog) (rat, UniProt P59996); test: solution equilibrium titration (SET), fit by the model of Piehler et al.
Method: (§2) The binding kinetics of the final selected candidates were analyzed using a Solution Equilibrium Titration (“SET”) assay. Briefly, serial dilutions of human, cyno, mouse, or rat Pcsk9 were prepared, and anti-Pcsk9 Ab was added to each antigen concentration to reach a constant antibody concentration of 100 pM. 100 μL/well of each dilution mix was distributed in duplicate to a 96-well polypropylene microtiter plate (Greiner). The plate was sealed and incubated over night at room temperature. A 96-well Standard Bind microtiter plate (Meso Scale Discovery) was coated with 25 μL of 1 μg/mL Pcsk9 diluted in PBS. This plate was sealed and incubated overnight at 4° C. After the incubation the antigen-coated Standard Bind micro titer plate was washed three times with 200 μL per well PBS/0.05% (w/v) Tween 20. Subsequently, the plate was blocked with 150 μL/well PBS/5% (w/v) BSA and incubated for one hour at room temperature with shaking. The washing steps were repeated and 25 μL/well of the antibody-antigen preparation from the polypropylene microtiter plate was transferred into the antigen-coated Standard Bind plate. The Standard Bind plate was incubated for 60 min at room temperature with shaking. After three additional washing steps, 25 μL of 1 μg/mL Sulfo-Tag-labeled goat anti-human-detection antibody (R32AJ-5, Meso Scale Discovery) diluted in PBS/1% (w/v) BSA/0.05% (w/v) Tween 20, buffer were added to each well and incubated one hour at room temperature with shaking. […] Electrochemiluminescence signals were generated and detected by a Sector Imager 6000 (Meso Scale Discovery).

[6] = biological target: T3, cynomolgus macaque PCSK9 with C-terminal his6 tag (cynomolgus monkey); test: as above
T3 chain: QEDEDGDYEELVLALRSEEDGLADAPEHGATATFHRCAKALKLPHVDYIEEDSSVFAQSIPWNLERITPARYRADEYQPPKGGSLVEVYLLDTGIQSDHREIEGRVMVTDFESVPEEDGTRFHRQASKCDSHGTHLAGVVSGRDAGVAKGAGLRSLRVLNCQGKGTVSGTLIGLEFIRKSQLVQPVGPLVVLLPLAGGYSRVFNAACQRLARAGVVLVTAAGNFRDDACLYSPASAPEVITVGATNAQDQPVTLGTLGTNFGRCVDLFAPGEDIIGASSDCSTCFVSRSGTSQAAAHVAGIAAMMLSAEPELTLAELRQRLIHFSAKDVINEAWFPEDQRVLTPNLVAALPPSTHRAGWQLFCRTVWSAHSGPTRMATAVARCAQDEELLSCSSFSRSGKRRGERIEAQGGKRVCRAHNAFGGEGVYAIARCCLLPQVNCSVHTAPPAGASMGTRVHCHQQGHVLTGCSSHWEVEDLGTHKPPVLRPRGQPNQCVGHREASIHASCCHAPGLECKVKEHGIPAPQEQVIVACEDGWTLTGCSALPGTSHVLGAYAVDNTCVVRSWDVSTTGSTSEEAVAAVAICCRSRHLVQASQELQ
Method: as §2

murine PCSK9 = biological target: T4, murine PCSK9 (mouse, UniProt Q80W65 35-694, limits assumed); test: as above
T4 construct: also called mouse Pcsk9
Method: as §2

[7] = biological target: T1, recombinant human PCSK9 (aa 31-692) …; test: solution equilibrium titration (SET): soluble human PCSK9 titrated against 100 pM antibody, free antibody captured on a Pcsk9-coated MSD plate; the concentration is that of human PCSK9
Method: Briefly, serial dilutions of human, cyno, mouse, or rat Pcsk9 were prepared, and anti-Pcsk9 Ab was added to each antigen concentration to reach a constant antibody concentration of 100 pM. 100 μL/well of each dilution mix was distributed in duplicate to a 96-well polypropylene microtiter plate (Greiner). The plate was sealed and incubated over night at room temperature. A 96-well Standard Bind microtiter plate (Meso Scale Discovery) was coated with 25 μL of 1 μg/mL Pcsk9 diluted in PBS. This plate was sealed and incubated overnight at 4° C. After the incubation the antigen-coated Standard Bind micro titer plate was washed three times with 200 μL per well PBS/0.05% (w/v) Tween 20. Subsequently, the plate was blocked with 150 μL/well PBS/5% (w/v) BSA and incubated for one hour at room temperature with shaking. The washing steps were repeated and 25 μL/well of the antibody-antigen preparation from the polypropylene microtiter plate was transferred into the antigen-coated Standard Bind plate. The Standard Bind plate was incubated for 60 min at room temperature with shaking. […] Electrochemiluminescence signals were generated and detected by a Sector Imager 6000 (Meso Scale Discovery).

hFgfr4 hFc [8] = biological target: T2, hFgfr4 hFc; test: specificity ELISA, antigen coated at 88 ng per well, absorbance 650 nm; remark: listed apart in the source
Method: as §1

HIS tag = biological target: T5, HIS tag; test: ELISA
T5 construct: also called his6 tag; 6-His
T5 peptide: HHHHHH

[9] = biological target: T1, recombinant human PCSK9 (aa 31-692) …; test: cell-based or functional assay; remark: listed apart in the source
[10] = biological target: T1, recombinant human PCSK9 (aa 31-692) …; test: solution equilibrium titration (SET), MSD electrochemiluminescence read-out; remark: listed apart in the source
Method: Serial dilutions of Pcsk9 were prepared, and antibodies were added to each antigen concentration to reach a constant antibody concentration of 100 pM. 100 μL/well of each dilution mix was distributed in duplicate to a 96-well polypropylene microtiter plate (Greiner). The plate was sealed and incubated over night at room temperature. A 96-well Standard Bind microtiter plate (Meso Scale Discovery) was coated with 25 μL of 1 μg/mL Pcsk9 diluted in PBS. This plate was sealed and incubated over night at 4° C. After the incubation the antigen-coated Standard Bind micro titer plate was washed three times with 200 [L per well PBS/0.05% (w/v) Tween 20. Subsequently, the plate was blocked with 150 μL/well PBS/5% (w/v) BSA and incubated for one hour at room temperature with shaking. The washing steps were repeated and 25 μL/well of the antibody-antigen preparation from the polypropylene microtiter plate was transferred into the antigen-coated Standard Bind plate. The Standard Bind plate was incubated for 60 min at room temperature with shaking. […] Electrochemiluminescence signals were generated and detected by a Sector Imager 6000 (Meso Scale Discovery). […]

[11] = biological target: T1, recombinant human PCSK9 (aa 31-692) …; test: TR-FRET competition, labelled hPcsk9 (8 nM) and labelled hLDL-R (1 nM); MAB1 antibody as competitor
Method: The percentage inhibition was calculated with the following formula: 100−[(normalized value of treated sample/averaged normalized value of untreated samples)×100]. The percentage inhibition dose response curves were plotted using Prism version 5 with the formula, Y=Bottom+(Top−Bottom)/(1+10̂((LogIC50−X)*HillSlope)) (GraphPad Prism Software).

T4 sequence (Q80W65 other isoform, or with tags, fused parts or gaps limits assumed): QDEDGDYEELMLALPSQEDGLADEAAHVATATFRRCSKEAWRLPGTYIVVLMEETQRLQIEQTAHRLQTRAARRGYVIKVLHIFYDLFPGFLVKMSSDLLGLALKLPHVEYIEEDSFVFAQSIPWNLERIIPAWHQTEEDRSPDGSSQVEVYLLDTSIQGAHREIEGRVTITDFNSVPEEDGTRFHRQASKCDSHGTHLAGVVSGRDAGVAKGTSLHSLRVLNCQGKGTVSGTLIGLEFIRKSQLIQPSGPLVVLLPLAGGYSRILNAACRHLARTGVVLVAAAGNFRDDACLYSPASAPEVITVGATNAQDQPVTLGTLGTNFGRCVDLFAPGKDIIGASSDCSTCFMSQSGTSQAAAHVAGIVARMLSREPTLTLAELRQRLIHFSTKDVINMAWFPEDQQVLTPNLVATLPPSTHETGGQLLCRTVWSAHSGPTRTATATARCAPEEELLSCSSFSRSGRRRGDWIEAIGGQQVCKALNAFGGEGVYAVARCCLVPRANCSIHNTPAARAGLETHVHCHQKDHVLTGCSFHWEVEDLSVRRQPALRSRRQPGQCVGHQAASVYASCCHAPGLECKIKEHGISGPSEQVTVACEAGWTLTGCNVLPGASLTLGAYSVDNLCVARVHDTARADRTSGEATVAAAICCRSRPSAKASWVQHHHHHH
Rat (Pcsk9 homolog), sequence (P59996 31-691 limits assumed): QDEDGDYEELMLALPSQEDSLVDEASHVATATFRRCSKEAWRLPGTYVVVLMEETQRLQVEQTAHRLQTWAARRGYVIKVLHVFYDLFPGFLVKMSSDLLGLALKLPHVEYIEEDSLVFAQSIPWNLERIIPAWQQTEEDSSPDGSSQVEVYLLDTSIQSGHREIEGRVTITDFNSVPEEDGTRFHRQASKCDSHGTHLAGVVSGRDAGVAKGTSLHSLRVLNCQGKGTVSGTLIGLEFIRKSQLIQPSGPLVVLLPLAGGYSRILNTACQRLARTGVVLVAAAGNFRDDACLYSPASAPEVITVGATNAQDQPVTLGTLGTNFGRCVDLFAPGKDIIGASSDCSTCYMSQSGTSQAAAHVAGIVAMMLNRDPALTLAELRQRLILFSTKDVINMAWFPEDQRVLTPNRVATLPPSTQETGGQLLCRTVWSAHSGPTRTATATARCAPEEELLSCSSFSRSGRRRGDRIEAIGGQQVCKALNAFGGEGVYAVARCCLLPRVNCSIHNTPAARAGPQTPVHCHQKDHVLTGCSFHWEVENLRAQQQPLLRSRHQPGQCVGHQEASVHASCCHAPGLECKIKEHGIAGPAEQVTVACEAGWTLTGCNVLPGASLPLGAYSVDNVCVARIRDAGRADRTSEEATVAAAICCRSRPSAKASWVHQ

Binder	Kd [1]	EC50, LDL uptake (DiI-LDL uptake by HepG2 cells with hPCSK9, flow cytometry) [2]	EC50, LDL-R protection (surface LDL-R on HepG2 cells, flow cytometry) [2]	IC50 [3]	Kd [4]	binding result (hFgfr4 hFc [5])	Kd (Rat (Pcsk9 homolog))	Kd [6]	Kd (murine PCSK9)	IC50 (read off the curve) [7]	binding result (hFgfr4 hFc [8])	binding result (HIS tag)	DiI-LDL-uptake by HepG2 cells treated with exogenous hPcsk9, EC50 [9]	Kd [10]	IC50 [11]
B1	22.3 nM	–	–	–	–	–	–	–	–	–	–	–	–	–	–
B2	–	210 nM	324 nM	20 nM	0.26 nM	no binding (tested: 2 µg/mL (single concentration))	> 10000 nM	0.4 nM	> 10000 nM	~0.3 nM	–	–	–	–	–
B3	–	168 nM	300 nM	28 nM	0.3 nM	–	> 10000 nM	0.4 nM	> 10000 nM	~0.3 nM	no binding (tested: 2 µg/mL (single concentration))	–	–	–	–
B4	–	–	309 nM	–	–	–	–	0.23 nM	> 10000 nM	–	–	no binding	194 nM	0.27 nM	77 nM

Source: patent publication US20130315927A1 (Novartis, published 2013)
